# Assay results published in patent US11319551B2, “Methods and compositions for PPO herbicide tolerance in plants” (Monsanto Technology LLC, priority 2015, dated 2022).
# B1: R2N100: microbial HemY protoporphyrinogen oxidase, SEQ ID NO:5 (protein, listed as Bacillus pumilus)
# chain: MHDNQKHLVIIGGGITGLAAAFYLEKEVEEKGLPIQISLIEASPRLGGKIQTLYKDGYIIERGPDSFLERKVSGPQLAKDVGLSDQLVNNETGQAYVLVNETLHPMPKGAVMGIPTQISPFITTGLFSVAGKARAAMDFVLPKSKQTEDQSLGEFFRRRVGDEVVENLIEPLLSGIYAGDIDRLSLMSTFPQFYQTEQKHRSLILGMKKSQQHAKAQQVTAKKQGQFQTINQGLQALVEAVESKLKLTTIYKGTKVKQIEKTDGGYGVQLDSGQTLLADSAIVTTPHQSIYSMFPKEAGLEYLHDMTSTSVATVALGFKEEDVHNEYDGTGFVISRNSDFSITACTWTNKKWPHTAPKGKTLLRAYVGKAGDESIVEQSDHQIVSIVLEDLKKIMDIKADPELTTVTRWKTSMPQYHVGHQKAISNMRETFKQSYPGVYITGAAFEGVGIPDCIDQGKAAISEAVSYLFS
# How the values were obtained:
# [1] = PPO enzyme assay, apparent Km for substrate; assay type: biochemical; details: substrate protoporphyrinogen
# [2] = test system: transgenic soybean plants; experiment: S-3100 tolerance of transformed soybean plantlets at five weeks; assay type: in vivo; parameters: key to Tolerance score to S-3100 at 5 weeks: 0 for poor tolerance, high damage, low green coloration; 1 for some tolerance, average damage, moderate green coloration; 2 for good tolerance, low damage, high green coloration; details: for Tolerance score to S-3100 at 5 weeks: day four post application
# Experimental: The microbial HemY PPO enzymes were expressed in transgenic soybean plants, and the transgenic plants were analyzed for PPO herbicide tolerance. […] For plant transformation, the nucleotide sequences encoding the HemY PPO enzymes were codon optimized for dicot expression. This permitted the side-by-side comparison of the seven different HemY PPO enzymes with thirty-nine different targeting peptides using the same promoter and 3′UTR elements for gene expression
# The plant transformation constructs were used to transform soybean excised embryos (germplasm A3555) using A. tumefaciens and standard methods known in the art. Four hundred explants were inoculated for each construct resulting in twelve containers per construct. A sterile PPO herbicide solution was used for herbicide tolerance testing. The herbicide solution consisted of 0.3 g of S-3100 in crop oil concentrate (5.0 mL) and 495 mL of deionized water. This was filtered through a 0.45 micron Nalgene® Rapid-Flow™ Tissue Culture Filter Unit and Surfactant-Free Cellulose Acetate membrane filter unit (VWR, Radnor, Pa., USA). The resulting sterile solution was shaken before application.
# At five weeks post-transformation, four of the twelve plant containers per construct were sprayed with two passes of the sterile PPO herbicide solution. The treated plantlets were then enclosed in the container and received at least 15 hours of light exposure post spray each day for four days. At the end of day four post application of S-3100, the treated plantlets were photographed and scored on a visual scale of green coloration (green coloration was representative of healthy photosynthetic plant tissue as compared to photo-bleached tissue) versus damage. The scoring values were 0 for poor tolerance, high damage, low green coloration; 1 for some tolerance, average damage, moderate green coloration; and 2 for good tolerance, low damage, high green coloration. The results of herbicide application of S-3100 at five weeks is presented in Table 5, where n.d. indicates the analysis was not conducted.
# [3] = test system: hemG knockout E. coli strain; assay type: cell-based; details: acifluorfen and S-3100
molecule,measurement,setting,value
B1,Km,[1],0.4 µM
same,tolerance to the PPO herbicide in high-throughput screening at five weeks,"[2]; S-3100, over the constructs with different transit peptides",did not provide tolerance
same,Tolerance score to S-3100 at 5 weeks,[2]; targeting peptide TP1,0
same,Tolerance score to S-3100 at 5 weeks,[2]; targeting peptide TP2,0
same,Tolerance score to S-3100 at 5 weeks,[2]; targeting peptide TP3,0
same,Tolerance score to S-3100 at 5 weeks,[2]; targeting peptide TP4,0
same,Tolerance score to S-3100 at 5 weeks,[2]; targeting peptide TP5,0
same,Tolerance score to S-3100 at 5 weeks,[2]; targeting peptide TP6,0
same,Tolerance score to S-3100 at 5 weeks,[2]; targeting peptide TP8,1
same,Tolerance score to S-3100 at 5 weeks,[2]; targeting peptide TP10,1
same,Tolerance score to S-3100 at 5 weeks,[2]; targeting peptide TP12,0
same,Tolerance score to S-3100 at 5 weeks,[2]; targeting peptide TP14,1
same,Tolerance score to S-3100 at 5 weeks,[2]; targeting peptide TP15,0
same,Tolerance score to S-3100 at 5 weeks,[2]; targeting peptide TP17,0
same,Tolerance score to S-3100 at 5 weeks,[2]; targeting peptide TP18,1
same,Tolerance score to S-3100 at 5 weeks,[2]; targeting peptide TP19,1
same,Tolerance score to S-3100 at 5 weeks,[2]; targeting peptide TP21,0
same,Tolerance score to S-3100 at 5 weeks,[2]; targeting peptide TP22,0
same,Tolerance score to S-3100 at 5 weeks,[2]; targeting peptide TP23,0
same,Tolerance score to S-3100 at 5 weeks,[2]; targeting peptide TP24,0
same,Tolerance score to S-3100 at 5 weeks,[2]; targeting peptide TP25,0
same,Tolerance score to S-3100 at 5 weeks,[2]; targeting peptide TP26,1
same,Tolerance score to S-3100 at 5 weeks,[2]; targeting peptide TP27,0
same,Tolerance score to S-3100 at 5 weeks,[2]; targeting peptide TP28,1
same,Tolerance score to S-3100 at 5 weeks,[2]; targeting peptide TP29,0
same,Tolerance score to S-3100 at 5 weeks,[2]; targeting peptide TP30,0
same,Tolerance score to S-3100 at 5 weeks,[2]; targeting peptide TP31,1
same,Tolerance score to S-3100 at 5 weeks,[2]; targeting peptide TP32,0
same,Tolerance score to S-3100 at 5 weeks,[2]; targeting peptide TP33,0
same,Tolerance score to S-3100 at 5 weeks,[2]; targeting peptide TP36,0
same,Tolerance score to S-3100 at 5 weeks,[2]; targeting peptide TP37,0
same,growth rate of hemG knockout E. coli strain in presence of PPO herbicide,[3],slower
same,tolerance to acifluorfen and S-3100 compared with strain containing R2N30 or R2N40,[3],much better
